To fix the notation:
B1: anti-mutCALR antibody clone 41 (antibody, human IgG1, lambda, V domains shown)
VH: EVQLVQSGAEVKKPGASVKVSCKVSGYTLTELSMHWVRQAPGKGLEWMGLVDPEDGETIYAQKFQGRVTMTEDTSTDTAYMELSSLRSEDTAVYYCAREEWSGDGDDAFDIWGQGTMVTVSS
VL: QSVLTQPPSVSAAPGQKVTISCSGSSSNIGSYSVSWYQQLPGTAPKLLIYDNNKRPSGIPDRFSGSNSGTSATLGITGLQTGDEADYYCGTWDSSLSAWVFGGGTKLTVLG
notes: human IgG1
B2: anti-mutCALR antibody clone 42 (antibody, human IgG1, lambda, V domains shown)
VH: B1 VH
VL: B1 VL with N52D, G75S
notes: human IgG1
B3: anti-mutCALR antibody clone 1 (antibody, human IgG1, lambda, V domains shown)
VH: EVQLVQSGAEVKKPGASVKVSCKVSGYTLTELSMQWVRQAPGKGLEWMGGFDPDDGETMYAEKFQGRLTVTEDTSTDTVYMELRSLTSEDTALYFCATSPGYDFFDYWGQGTLVTVSS
VL: SYVLTQPPSVSVAPGKTARITCGGNYIGSKSVHWYQQKPGQAPVLVVYDDGDRPSGIPARFSGSNSGNTATLTISRVEAGDEADYYCQVWDSISDHVVFGGGTKLTVLG
notes: human IgG1
B4: anti-mutCALR antibody clone 2 (antibody, human IgG1, lambda, V domains shown)
VH: B3 VH
VL: B3 VL with V3E, N25D, Y26N, G51S, A59E, I93S, S94I, V97L, V98I, L105V
notes: human IgG1
B5: anti-mutCALR antibody clone 12 (antibody, human IgG1, lambda, V domains shown)
VH: B3 VH with D55G
VL: SYVLTQPPSVSVAPGQTARVSCGGNNIGSKSVNWYRQKPGQAPVLVIYDDSDRPSGIPERFSGSNSGNTATLTINRVEAGDEADYYCQVWDSSNDLLIFGGGTKLTVLG
notes: human IgG1
B6: anti-mutCALR antibody clone 10 (antibody, human IgG1, lambda, V domains shown)
VH: B3 VH
VL: B5 VL with V3E, V20I, S21P, K30E, S31G, N33H, R36Q, I47V, N75S
notes: human IgG1
B7: anti-mutCALR antibody clone 5 (antibody, human IgG1, lambda, V domains shown)
VH: B3 VH
VL: SYVLTQPPSVSVAPGQTASITCVGTNFGSKNVHWYQQRPGQAPVLVVYDDSDRPSGIPERFSGSNSGNTATLTISRVEAGDEADYYCQVWDSSSDHLIFGGGTKLTVLG
notes: human IgG1
B8: anti-mutCALR antibody clone 19 (antibody, human IgG1, lambda, V domains shown)
VH: B3 VH with S75P
VL: SYVLTQPLSVSVALGQTARITCGGSNIGDIRVHWYQQKPGQAPVLVVYDDSDRPSGIPERFSGSNSGNTATLTINRVEAGDEADYYCQVWDSSNDLLIFGGGTKLTVLG
notes: human IgG1
B9: anti-mutCALR antibody clone 22 (antibody, human IgG1, lambda, V domains shown)
VH: B3 VH
VL: B8 VL with L8P, L14P, Q16K, S25N, D29S, I30K, R31N
notes: human IgG1
B10: anti-mutCALR antibody clone 7 (antibody, human IgG1, lambda, V domains shown)
VH: B3 VH
VL: B7 VL with S75N, S94N, H96L
notes: human IgG1
B11: anti-mutCALR antibody clone 20 (antibody, human IgG1, lambda, V domains shown)
VH: B3 VH
VL: B8 VL with L8P, L14P, Q16K, S25N, D29S, I30K, R31G
notes: human IgG1
B12: anti-mutCALR antibody clone 26 (antibody, human IgG1, lambda, V domains shown)
VH: B3 VH
VL: B7 VL with S19R, V23G, T25N, F27I, N31S, R38K, S94I, L105V
notes: human IgG1
B13: anti-mutCALR antibody clone 13 (antibody, human IgG1, lambda, V domains shown)
VH: B3 VH with E1Q
VL: not shown
notes: human IgG1
B14: anti-mutCALR antibody clone 24 (antibody, human IgG1, lambda, V domains shown)
VH: B3 VH with F64L
VL: B5 VL with Q16K, V20I, S21T, N33H, R36Q, I47V
notes: human IgG1
B15: anti-mutCALR antibody clone 27 (antibody, human IgG1, lambda, V domains shown)
VH: B3 VH
VL: B8 VL with L8P, L14P, S25N, D29I, I30K, R31S, S51R
notes: human IgG1
B16: anti-mutCALR antibody clone 3 (antibody, human IgG1, lambda, V domains shown)
VH: B3 VH with K63R
VL: B5 VL with V20I, S21T, N33H, R36Q, I47V
notes: human IgG1
B17: anti-mutCALR antibody clone 8 (antibody, human IgG1, lambda, V domains shown)
VH: B3 VH with E1Q, A16S
VL: B3 VL with V3E, K16Q, Y26N, G51S, A59E, N68R, Y86H, I93S, V97L
notes: human IgG1
B18: anti-mutCALR antibody clone 16 (antibody, human IgG1, lambda, V domains shown)
VH: B3 VH
VL: B5 VL with Q16K, V20I, S21T, I27T, N33H, R36Q, I47V
notes: human IgG1
B19: anti-mutCALR antibody clone 21 (antibody, human IgG1, lambda, V domains shown)
VH: B3 VH with K23E
VL: B5 VL with N75S
notes: human IgG1
B20: anti-mutCALR antibody clone 9 (antibody, human IgG1, lambda, V domains shown)
VH: B3 VH
VL: B5 VL with V20I, S21P, N33H, R36Q, I47V, S51R
notes: human IgG1
B21: anti-mutCALR antibody clone 18 (antibody, human IgG1, lambda, V domains shown)
VH: B3 VH
VL: B5 VL with Q16K, V20I, S21T, N33H, R36Q, I47V, S55L
notes: human IgG1
B22: anti-mutCALR antibody clone 4 (antibody, human IgG1, lambda, V domains shown)
VH: B3 VH
VL: B5 VL with V20I, S21T, N33H, R36Q, I47V
notes: human IgG1
B23: anti-mutCALR antibody clone 25 (antibody, human IgG1, lambda, V domains shown)
VH: B3 VH
VL: B8 VL with V3E, L8P, S11A, L14P, S25N, D29R, I30K, R31A
notes: human IgG1
B24: anti-mutCALR antibody clone 23 (antibody, human IgG1, lambda, V domains shown)
VH: B3 VH
VL: B8 VL with L8P, L14P, S25N, D29I, I30K, R31S
notes: human IgG1
B25: anti-mutCALR antibody clone 177 (antibody, human IgG1, lambda, N297A, V domains shown)
VH: B3 VH with D55S, R84S, T87R, L93V
VL: B8 VL with L8P, L14P, N26D, I30E, R31I, N75S, V77A, E78Q, N94S, L96H
B26: anti-mutCALR antibody clone 176 (antibody, human IgG1, lambda, N297A, V domains shown)
VH: B3 VH with D55A, R84S, T87R, L93V
VL: B8 VL with L8P, L14P, N26D, I30E, R31I, N75S, V77A, E78Q, N94S, L96H

Numbering of substitutions follows the chain as printed.

The first test has as its target T1, Recombinant MBP-mutCALR Type 1 fusion protein (human).
T1 construct: custom made at Cepter; also called recombinant mutCALR protein
In words: SPR, IgG captured, 1:1 fit, Exp. 1. As for the experimental part:
Experiment 1: Recombinant MBP-mutCALR Type 1 fusion protein was custom made at Cepter (cepterbiopartners.com). Data for the interaction of antibodies with recombinant MBP-mutCALR Type 1 fusion protein were collected at 25° C. on a Biacore 8K instrument (Cytiva, Marlborough, Mass.), and all reagents were obtained from Cytiva unless otherwise specified. The experiments were conducted using Tris-buffered saline (pH 7.2), 0.005% Surfactant P20, 1 mM CaCl₂) as running buffer. To prepare the capture surfaces, anti-human IgG (Fc) antibodies (Product #29234600) was amine-coupled onto a CM4 chip (Product #BR100534) under standard conditions using an Amine Coupling Kit (Product #BR100050). […] The kinetics parameters were obtained by applying 1:1 binding model to fit the data from multiple-cycle injection experiments using Biacore Insight Evaluation software.
Background: SPR reads the build-up and loss of mass on a sensor chip optically.
As to B1, the Kd came out at 4.88 nM, the koff came out at 0.00811 s⁻¹ and the on-rate (kon) turned out to be 1.66e+06 M⁻¹ s⁻¹.
As to B2, the equilibrium dissociation constant (Kd) was determined as 6.97 nM, the off-rate (koff) was found to be 0.00452 s⁻¹ and the on-rate (kon) stood at 649000 M⁻¹ s⁻¹.
On to B3, for which the dissociation constant Kd worked out at 14.2 nM, the koff was 0.0196 s⁻¹ and the kon is 1.38e+06 M⁻¹ s⁻¹.
For B4, the Kd is 7.58 nM, the koff came to 0.0123 s⁻¹ and the kon was found to be 1.63e+06 M⁻¹ s⁻¹.
Turning to B5, the Kd was 4.08 nM, the koff stood at 0.0024 s⁻¹ and the kon was determined as 589000 M⁻¹ s⁻¹.
As for B6, the dissociation constant (Kd) stood at 1.38 nM, the koff stood at 0.00292 s⁻¹ and the kon worked out at 2.11e+06 M⁻¹ s⁻¹.
In the case of B7, the dissociation constant Kd came to 4.33 nM, the koff amounted to 0.00405 s⁻¹ and the kon came to 935000 M⁻¹ s⁻¹.
In the case of B8, the Kd amounted to 9.04 nM, the off-rate (koff) is 0.0132 s⁻¹ and the kon worked out at 1.46e+06 M⁻¹ s⁻¹.
Turning to B9, the dissociation constant Kd came out at 12.6 nM, the koff was determined as 0.00289 s⁻¹ and the kon came to 229000 M⁻¹ s⁻¹.
For B10, in that order: 3.83 nM, 0.00609 s⁻¹ and 1.59e+06 M⁻¹ s⁻¹.
On to B11, for which the Kd was found to be 4.46 nM, the koff worked out at 0.00498 s⁻¹ and the on-rate constant (kon) came to 1.12e+06 M⁻¹ s⁻¹.
For the molecule B12, the Kd was determined as 9.84 nM, the koff is 0.00471 s⁻¹ and the kon came out at 478000 M⁻¹ s⁻¹.
For B13, the dissociation constant (Kd) worked out at 10.1 nM, the dissociation rate constant (koff) was 0.0301 s⁻¹ and the on-rate constant (kon) turned out to be 2.99e+06 M⁻¹ s⁻¹.
Consider B14, for which the Kd was 7.62 nM, the off-rate (koff) came out at 0.00199 s⁻¹ and the kon is 261000 M⁻¹ s⁻¹.
As to B15, the Kd amounted to 9.63 nM, the koff was 0.00366 s⁻¹ and the on-rate constant (kon) stood at 380000 M⁻¹ s⁻¹.
B16: the Kd came out at 3.45 nM, the koff stood at 0.00716 s⁻¹ and the kon amounted to 2.08e+06 M⁻¹ s⁻¹.
In the case of B17, the Kd came to 4.58 nM, the koff is 0.00802 s⁻¹ and the kon was found to be 1.75e+06 M⁻¹ s⁻¹.
For B18, in that order: 12.5 nM, 0.0354 s⁻¹ and 2.84e+06 M⁻¹ s⁻¹.
In the case of B19, the Kd came out at 2.58 nM, the off-rate (koff) came out at 0.00664 s⁻¹ and the on-rate (kon) is 2.57e+06 M⁻¹ s⁻¹.
Regarding B20, the equilibrium dissociation constant (Kd) was 2.99 nM, the dissociation rate constant (koff) stood at 0.00904 s⁻¹ and the on-rate (kon) stood at 3.02e+06 M⁻¹ s⁻¹.
For B21, in that order: 2.66 nM, 0.00628 s⁻¹ and 2.37e+06 M⁻¹ s⁻¹.
On to B22, for which the equilibrium dissociation constant (Kd) came out at 4.33 nM, the koff was 0.00704 s⁻¹ and the kon is 1.63e+06 M⁻¹ s⁻¹.
On to B23, for which the Kd came out at 6.64 nM, the koff was 0.00389 s⁻¹ and the association rate constant (kon) is 585000 M⁻¹ s⁻¹.
For the molecule B24, the Kd amounted to 4.37 nM, the koff worked out at 0.00343 s⁻¹ and the on-rate constant (kon) is 785000 M⁻¹ s⁻¹.

The target in the next test is T2, human mutCALR on BaF3 cells stably expressing human MPL and human mutCALR (MPL-mutCALR cells) (human).
T2 construct: also called mutant calreticulin
T2 chain: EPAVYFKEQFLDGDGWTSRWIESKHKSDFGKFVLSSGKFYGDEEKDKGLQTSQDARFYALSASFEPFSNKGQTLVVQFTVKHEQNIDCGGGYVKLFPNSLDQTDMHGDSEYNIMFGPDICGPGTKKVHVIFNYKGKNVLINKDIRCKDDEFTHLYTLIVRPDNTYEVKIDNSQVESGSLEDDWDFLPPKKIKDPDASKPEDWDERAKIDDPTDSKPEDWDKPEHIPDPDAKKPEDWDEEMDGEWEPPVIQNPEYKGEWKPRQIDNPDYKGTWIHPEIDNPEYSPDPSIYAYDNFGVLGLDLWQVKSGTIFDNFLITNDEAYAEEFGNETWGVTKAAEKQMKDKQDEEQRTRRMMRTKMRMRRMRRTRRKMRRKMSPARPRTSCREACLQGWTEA
In words: flow cytometry, BaF3 MPL-mutCALR cells. As for the experimental part: On the day of the assay, cells were washed and resuspended in assay buffer. Approximately 200,000 cells/well were added to 96-well plates and stained with the indicated concentration of antibodies for 30 minutes on ice. Cells were then washed and stained with goat anti-human secondary conjugated to R-phycoerythrin (R-PE) (Jackson Immuno Research Laboratories) for 30 minutes on ice. The cells were then washed and analyzed by flow cytometry.
Background: Flow cytometry measures light scatter and fluorescence of single cells or particles in a stream.
Consider B25, for which the midpoint of the response, the EC50, lay at 3.4 ng/mL and the “MPL-mutCALR AUC” value came to 52900.
As for B26, the 50% effective concentration (EC50) is 3.1 ng/mL and the “MPL-mutCALR AUC” value is 48400.

As a reminder, the Kd is the equilibrium constant for the complex coming apart. For orientation: koff means a measure of how fast the partners let go of each other. As a reminder, the kon is the rate constant with which the complex forms. By EC50 is commonly meant the concentration at which the effect is half-maximal. A higher EC50 goes with weaker potency.

The values above are taken from patent US20230272055A1 (Incyte, published 2023).
